Measurements: FireProtDB (doi:10.1016/0014-5793(94)01308-n)
“And” between values parts separate entries of the source, which are not always exact repeats. Equal values may be shown once.

Conditions: Sus scrofa, Thermal, DSC, Sodium phosphate 5 mM, reversible: yes, whole UniProt chain shown

B1: Gastricsin wild type, P30879 (protein)
chain: SVIKVPLKKLKSIRQAMKEKGLLEEFLKTHKYDPAQRYRIGDISVALEPMAYLEAAYFGEISIGTPPQNFLVL
Tm (pH 6): 66.2 °C
unfolding enthalpy (calorimetric) (pH 6): 254 kcal/mol
unfolding enthalpy (calorimetric) (pH 6.4): 248 kcal/mol and 269 kcal/mol
Tm (pH 6.8): 47.2 °C
unfolding enthalpy (calorimetric) (pH 6.8): 221 kcal/mol
Tm (pH 7.2): 56.1 °C
unfolding enthalpy (calorimetric) (pH 7.2): 195 kcal/mol
Tm (pH 7.3): 39.8 °C
unfolding enthalpy (calorimetric) (pH 7.3): 192 kcal/mol
Tm (pH 7.7): 55 °C
unfolding enthalpy (calorimetric) (pH 7.7): 173 kcal/mol
Tm (pH 8): 51.1 °C
unfolding enthalpy (calorimetric) (pH 8): 182 kcal/mol
Tm (pH 8.2): 33.8 °C
unfolding enthalpy (calorimetric) (pH 8.2): 170 kcal/mol
